Laboratory results reported in patent US20260130970A1, “PRESERVED GIP/GLP AGONIST COMPOSITIONS” (ELI LILLY AND COMPANY, priority 2022, published 2026).

Experiment: Light scattering of tirzepatide samples (apparent weight-average molecular weight, self-association)
Type: physicochemical
Settings: Mounjaro™ matrix (5 mM phosphate buffer, 140 mM NaCl, pH=7.0), 5 mg/mL to 30 mg/mL
Procedure: Tirzepatide formulations were prepared for light scattering measurements, with compositions detailed in Tables 1.a and 1.b. Light scattering data were collected using an ALV-CGS3 goniometer-based light scattering instrument (ALV-GmbH, Langen, Germany), which is a self-contained system with 22 mW 633 nm HeNe laser. Samples were filtered into disposable glass tubes using appropriate filters. Corresponding drug product placebos were used as scattering blanks. A single 15- or 30-second-long acquisition at 90-degree scattering angle was collected per sample, using the dynamic light scattering (DLS) mode. The resulting DLS auto-correlation functions were analyzed using intensity-weighted regularized size distributions, and shown to be monomodal before proceeding. The time-averaged scattering intensity values of the samples, placebos and toluene were used to calculate the excess Rayleigh ratios.
Apparent weight-average molecular weight (WAMW) values were calculated using formula (1):
[formula] • where K is an optical constant, c is the peptide mass concentration, and R is the excess Rayleigh ratio. A refractive index increment (dn/dc) of 0.185 mL/g was assumed.
To study the effect of preservatives, m-cresol, phenol or benzyl alcohol at selected concentrations were added to a standard Mounjaro™ composition. […]

For tirzepatide, the self-association of tirzepatide was “monomer-trimer-hexamer equilibrium”.
